The results in this text go back to the supplement of paper PMC10567573.

B1: ZNF263 (parent)
chain: FGGNPRFLSLHRAHLGEEAHKCLE
B2: WSB1 (parent)
chain: FSHDGLHVASLADDKMVRFWRIDE
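Further: lentivirally expressed fusions sorted by FACS into six bins by GFP to DsRed ratio, PSI derived from sequencing read proportions per bin multiplied by bin number.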

In one series the parent is B1. As to the kind of experiment: protein stability index of a GFP-peptide fusion (GPS, HEK-293T) (PSI 1-6); higher = more stable. Conditions: c terminus: a fixed tail appended.
On to FGGNPLFLSLHRAHLGEEAHKCLE [R6L], for which the protein stability index is 2.62.

FGGNPKFLSLHRAHLGEEAHKCLE [R6K]: the protein stability index came to 2.77.

On to FGGNPAFLSLHRAHLGEEAHKCLE [R6A], for which the protein stability index came to 3.22.

Regarding FGGNPCFLSLHRAHLGEEAHKCLE [R6C], the protein stability index came to 3.09.

With FGGNPMFLSLHRAHLGEEAHKCLE [R6M], the protein stability index was found to be 2.5.

With FGGNPQFLSLHRAHLGEEAHKCLE [R6Q], the protein stability index is 1.82.

With FGGNPNFLSLHRAHLGEEAHKCLE [R6N], the protein stability index was 1.89.

Consider FGGNPPFLSLHRAHLGEEAHKCLE [R6P], for which the protein stability index was 2.73.

FGGNPGFLSLHRAHLGEEAHKCLE [R6G]: the protein stability index is 1.74.

For FGGNPFFLSLHRAHLGEEAHKCLE [R6F], the protein stability index was 2.25.

For the variant FGGNPDFLSLHRAHLGEEAHKCLE [R6D], the protein stability index amounted to 1.83.

On to FGGNPIFLSLHRAHLGEEAHKCLE [R6I], for which the protein stability index is 2.58.

As to FGGNPHFLSLHRAHLGEEAHKCLE [R6H], the protein stability index is 2.37.

In the case of FGGNPEFLSLHRAHLGEEAHKCLE [R6E], the protein stability index came to 1.3.

In a further series the parent is B2. Described as above. Conditions: c terminus: a fixed tail appended.
Regarding FSHDGLHMASLADDKMVRFWRIDE [V8M], the protein stability index was 1.03.

As to FSHDGLHHASLADDKMVRFWRIDE [V8H], the protein stability index came out at 1.83.

Take FSHDGLHVASLADDKSVRFWRIDE [M16S]: the protein stability index was found to be 2.12.

For the variant FSHDGLHVASLADDKTVRFWRIDE [M16T], the protein stability index was found to be 1.16.

FSHDGLHVASLADDKEVRFWRIDE [M16E]: the protein stability index was 1.88.

For the variant FSHDGLHVASLADDKLVRFWRIDE [M16L], the protein stability index turned out to be 1.56.

For FSHDGLHVKSLADDKMVRFWRIDE [A9K], the protein stability index is 1.67.

Take FSHDGLHVDSLADDKMVRFWRIDE [A9D]: the protein stability index is 1.71.

Regarding FSHDGLHVNSLADDKMVRFWRIDE [A9N], the protein stability index came out at 2.09.

FSHDGLHVLSLADDKMVRFWRIDE [A9L]: the protein stability index is 2.62.

As for FSHDGLHVTSLADDKMVRFWRIDE [A9T], the protein stability index came to 1.25.

With FSHDGLHVSSLADDKMVRFWRIDE [A9S], the protein stability index turned out to be 2.17.

In the case of FSHDGLHVASLADDRMVRFWRIDE [K15R], the protein stability index came to 2.02.

As to FSHDGLHVASLADDNMVRFWRIDE [K15N], the protein stability index came to 1.65.

For the variant FSHDGLHVASLADDCMVRFWRIDE [K15C], the protein stability index was 1.53.

Regarding FSHDGLHVASLADDKMVGFWRIDE [R18G], the protein stability index was found to be 1.26.

Take FSMDGLHVASLADDKMVRFWRIDE [H3M]: the protein stability index amounted to 1.79.

Regarding FSLDGLHVASLADDKMVRFWRIDE [H3L], the protein stability index was found to be 1.37.

For the variant FSHDGLHVASLADFKMVRFWRIDE [D14F], the protein stability index amounted to 2.93.

As to FSHDGLHVASLPDDKMVRFWRIDE [A12P], the protein stability index was found to be 1.57.

For FSHDGLHVASLHDDKMVRFWRIDE [A12H], the protein stability index came out at 2.99.

Take FSHDGLHVASLKDDKMVRFWRIDE [A12K]: the protein stability index was determined as 1.71.

Take FSHDGLHVASLCDDKMVRFWRIDE [A12C]: the protein stability index was found to be 1.95.

Regarding FSHDGLHVASLVDDKMVRFWRIDE [A12V], the protein stability index was 1.75.

With FSHDGLHVASLQDDKMVRFWRIDE [A12Q], the protein stability index amounted to 2.55.

Take FSHDGLHVASLIDDKMVRFWRIDE [A12I]: the protein stability index came out at 1.93.

HSHDGLHVASLADDKMVRFWRIDE [F1H]: the protein stability index amounted to 3.01.

MSHDGLHVASLADDKMVRFWRIDE [F1M]: the protein stability index stood at 3.81.

Take QSHDGLHVASLADDKMVRFWRIDE [F1Q]: the protein stability index is 3.9.

Consider ISHDGLHVASLADDKMVRFWRIDE [F1I], for which the protein stability index stood at 2.89.

For the variant FSHDGLHVASLADDKMVRFWRNDE [I22N], the protein stability index was 2.09.

As for FSHDGLHVASLADDKMVRFWRKDE [I22K], the protein stability index came out at 2.66.

On to FSHDGLHVASLAGDKMVRFWRIDE [D13G], for which the protein stability index was 1.04.

FSHDGLHVASLANDKMVRFWRIDE [D13N]: the protein stability index was 2.09.

As for FSHDGLHVASLAIDKMVRFWRIDE [D13I], the protein stability index was found to be 1.21.

On to FSHDGLHVASLAWDKMVRFWRIDE [D13W], for which the protein stability index amounted to 2.68.

For FSHDGLHVASLADDKMVRFWDIDE [R21D], the protein stability index was determined as 2.19.

Consider FSHDGLHVASLADDKMVRFWGIDE [R21G], for which the protein stability index came out at 1.47.

FSHDGLHVASLADDKMVRFWQIDE [R21Q]: the protein stability index was 1.44.

Consider FSHDGLHVASLADDKMVRFWYIDE [R21Y], for which the protein stability index came to 3.45.

In the case of FSHDGKHVASLADDKMVRFWRIDE [L6K], the protein stability index was 1.65.

In the case of FSHDGNHVASLADDKMVRFWRIDE [L6N], the protein stability index was 3.26.

As to FSHDGLHVASLADDKMVRYWRIDE [F19Y], the protein stability index amounted to 2.33.

Regarding FSHDGLHVASLADDKMVRTWRIDE [F19T], the protein stability index was 3.13.

In the case of FSHDGLHVASLADDKMVREWRIDE [F19E], the protein stability index was determined as 3.92.

As to FSHDGLHVASLADDKMVRCWRIDE [F19C], the protein stability index is 2.32.

Regarding FSHDGLHVASLADDKMVRPWRIDE [F19P], the protein stability index was found to be 2.65.

With FSHDGLHVASLADDKMVRDWRIDE [F19D], the protein stability index is 3.37.

For FSHDGLHVASLADDKMVRWWRIDE [F19W], the protein stability index was 1.57.

Regarding FSHDGLHVASVADDKMVRFWRIDE [L11V], the protein stability index was 2.03.

On to FSHDGLHVASPADDKMVRFWRIDE [L11P], for which the protein stability index worked out at 1.47.

Turning to FSHDGLHVASIADDKMVRFWRIDE [L11I], the protein stability index was 2.2.

FSHDGLHVASLADDKMVRFWRIDV [E24V]: the protein stability index was determined as 2.12.

With FSHDGLHVASLADDKMVRFWRIDY [E24Y], the protein stability index is 1.97.

With FSHDGLHVASLADDKMVRFWRIDR [E24R], the protein stability index is 1.78.

Consider FSHDGLHVASLADDKMVRFWRIDM [E24M], for which the protein stability index is 2.05.

FSHDGLGVASLADDKMVRFWRIDE [H7G]: the protein stability index was 1.4.

As to FSHDGLEVASLADDKMVRFWRIDE [H7E], the protein stability index came to 1.84.

As to FSHDGLFVASLADDKMVRFWRIDE [H7F], the protein stability index turned out to be 2.87.

For the variant FSHDGLHVASLADDKMLRFWRIDE [V17L], the protein stability index came to 1.27.

FSHDGLHVASLADDKMQRFWRIDE [V17Q]: the protein stability index worked out at 2.14.

Regarding FSHDGLHVASLADDKMFRFWRIDE [V17F], the protein stability index turned out to be 1.58.

As to FSHDGLHVAILADDKMVRFWRIDE [S10I], the protein stability index stood at 1.69.

Consider FSHDGLHVASLADDKMVRFWRIEE [D23E], for which the protein stability index was found to be 1.58.

In the case of FSHDGLHVASLADDKMVRFWRIIE [D23I], the protein stability index stood at 3.06.

For the variant FSHDGLHVASLADDKMVRFWRIYE [D23Y], the protein stability index turned out to be 1.34.

As to FSHDGLHVASLADDKMVRFWRIRE [D23R], the protein stability index was 1.45.

For the variant FSHDALHVASLADDKMVRFWRIDE [G5A], the protein stability index is 1.92.

As to FSHDKLHVASLADDKMVRFWRIDE [G5K], the protein stability index turned out to be 1.96.

As to FSHDPLHVASLADDKMVRFWRIDE [G5P], the protein stability index is 1.81.

As to FSHDDLHVASLADDKMVRFWRIDE [G5D], the protein stability index is 3.16.

Turning to FSHDLLHVASLADDKMVRFWRIDE [G5L], the protein stability index was 1.74.

Consider FSHDMLHVASLADDKMVRFWRIDE [G5M], for which the protein stability index turned out to be 3.4.

As for FGHDGLHVASLADDKMVRFWRIDE [S2G], the protein stability index was 1.15.

On to FEHDGLHVASLADDKMVRFWRIDE [S2E], for which the protein stability index was determined as 2.34.

For the variant FSHDGLHVASLADDKMVRFDRIDE [W20D], the protein stability index is 3.51.

With FSHDGLHVASLADDKMVRFSRIDE [W20S], the protein stability index is 2.7.

Consider FSHDGLHVASLADDKMVRFGRIDE [W20G], for which the protein stability index came to 2.79.

For FSHDGLHVASLADDKMVRFARIDE [W20A], the protein stability index came to 2.48.

For the variant FSHDGLHVASLADDKMVRFNRIDE [W20N], the protein stability index worked out at 2.66.
